Measurements from patent US20170052184A1 (published 2017).

B1: HCV 208B-327 (antibody, V domains shown)
VH: EVQLVESGGGLVKPGGSLKLSCAASGFTFSDSYMYWVRQTPDQRLEWVATISDGGSYTFYPDSVKGRFTISRDNAQNNLYLQMSSLKSEDTAMYYCASPHAGYFGWFAYWGRGTLVTVSA
VL: DIVMTQAAFSNPVTPGTSVSISCRSSKSLLHSNGITYLYWYLQKPGQSPQLLIYQMSKIASGVPDRFRSSGSGTDFTLRISRVEAADVGVYYCAQNLELPWTFGGGTKLEIKR
B2: HCV 208B-408 (antibody, V domains shown)
VH: EVKLVESGGGLVQPGGSLRLSCASSGFTFTDYYMSWVRQPPGKALEWLGFIRNKAYGYTTEFSASVNGRFTISRDDSQSVPYLQMNTLRAEDSATYYCARVLYYDYGGFAYWGQGTLVTVST
VL: DIQMTQSPASLSASVGETVTITCRASGNIHTYLAWYQQKQGKSPQLLVYNANTLADGVPSRFSGSGSGTQFSLKINSLQPDDFGSYYCQHFWSAPWTFGGGTQLEIKR
B3: HCV 208B-515 (antibody, V domains shown)
VH: QVQLQQPGAELVKPGASLKLSCRASGYTFTSYWIHWVKQRPGQGLEWIGEIDPSDSYTNYNQKFKGKATLTVDKSSRAAYMQLSSLTSEDSAVYYCARHYYGVFDSWGQGTKLTVSS
VL: QIVFTQYPAIMSASLGERVTMTCTASSSVTSSYLHWFQQKPGSSPKLWIYSTSNPGSGVPARFSGRGSGTSYSLSISSMEAEDAATYYCLQFHRSPWTFGGGTKLEIRR
B4: HCV 208B-395 (antibody, V domains shown)
VH: QVQLQQSGAGLAKPGASVKMSCKASGYTFTANKMHWTKQRPGQGLEWIGYIDPSSGYTQYNHKIQDKATLTADTSSSTAYMQLSSLTFEDSAVYYCTNFAYWGQGTLVTVSA
VL: DIVLTQSPATLSVTPGDRVSLSCRASQRIYNYLHWYQQKSHESPRLLIKYASQSISGIPSRFSGSGSGTDFILTINSVETEDFGMYFCQQSNSWPLTFGAGTKLELRR
B5: HCV 208B-517 (antibody, V domains shown)
VH: QVQLKQSGPGLVQPSQSLSITCTVSGFSLITHGVHWVRQSPGKGLEWLGVIWSGGSTDYNAAFISRLSISKDTSKSQVFLKMSSLQADDTAIYYCARNGGATAFDYWGQGTTLTVSS
VL: DIVMTQSPATLSVTPGDRVSLSCRASQSISDYLHWYQQKSHESPRLLIKYASQSISGIPSRFRGSGSGSHFTLSINSVEPEDVGVYYCQNGHSFPWTFGGGTKLEIKR
B6: HCV 208A-352 (antibody, V domains shown)
VH: QGQMQQSGAELVKPGASVKLSCKTSGFTFSSSFISWLKQKPGQSLEWIAWIYAGTGNTNYNQKFTDKAQLTVDTSSSTAYMQFSSLTTEDSAIYYCAISGTGFTYWGQGTLVTVSA
VL: DVLMAQTPLSLPVTLGDQASISCRSSQSLVHSNGNTYLEWFLQKPGQSPKLLIYNVSNRFSGVPDRFSGSGSGTDFTLKISRVEAEDLGVYYCFQGSHVPLTFGSGTKLEIKR
B7: HCV 208B-281 (antibody, V domains shown)
VH: QGQLQQSGAELVKPGASVKLSCKTSGFTFSSSYISWLKQRPGQSLEWIAWIYAGTGGTNYNQKFTDKAQLTVDTSSSTAYMQFSSLTTEDSAIYYCAISGTGFIYWGQGTLVTVSA
VL: DVLMTQTPLSLPVSLGDQASISCRSSQSLVHNNGNTYLEWFLQKPGQSPKLLIYKVSNRFSGVPDRFSGSGSGTDFTLKISRVEAEDLGVYYCFQGSHVPFTFGSGTKLEIKR
B8: HCV 208B-189 (antibody, V domains shown)
VH: QVHLQQSGAELAKPGASVQMSCKASGYTFTANKMHWARQRPRQGLEWIGYIDPASGYTEYNQKIKDRATLTADKSSSTAYMQLSSLTSEDSAVYYCTNFAYWGQGTLVTVST
VL: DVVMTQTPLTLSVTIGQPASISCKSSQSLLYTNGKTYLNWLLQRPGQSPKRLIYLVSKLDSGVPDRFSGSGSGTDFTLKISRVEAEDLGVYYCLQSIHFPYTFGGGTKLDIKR

What was measured:
HCV Core1-169 [1] = biological target: T1, HCV Core1-169 (HCV-1, UniProt P26664 1-169); experiment: EIA, core1-169 coated on plate
T1 construct: also called recombinant HCV core antigen
T1 sequence: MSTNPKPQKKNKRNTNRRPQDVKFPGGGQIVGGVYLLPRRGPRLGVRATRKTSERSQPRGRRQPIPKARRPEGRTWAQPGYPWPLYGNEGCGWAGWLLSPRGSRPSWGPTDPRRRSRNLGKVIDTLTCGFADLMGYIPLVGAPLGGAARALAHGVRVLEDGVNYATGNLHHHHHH

HCV Core1-169 [2] = biological target: T1, HCV Core1-169; experiment: EIA, core1-169 captured by mAb 14-153-229
Further: test concentration or dose not given here.

| Binder | OD (A492) (HCV Core1-169 [1]) [OD] | OD (A492) (HCV Core1-169 [2]) [OD] |
| --- | --- | --- |
| B1 | 0.14 | 0.11 |
| B2 | 0.09 | 0.09 |
| B3 | 0.06 | 0.08 |
| B4 | 0.5 | 1.95 |
| B5 | 0.79 | 0.97 |
| B6 | 0.1 | 0.53 |
| B7 | 0.09 | 0.11 |
| B8 | 0.49 | 1.81 |
